Measured values as given in patent publication US8999342B2, “Anti-fibroblast activation protein antibodies and methods and uses thereof” (Ludwig Institute for Cancer Research, Ltd., priority 2009, dated 2015).
Numbering of substitutions follows the chain as printed. “Also recorded” adds a separate entry of the source.

What was measured:
FAP [1] = biological target: T1, FAP (Homo sapiens, UniProt Q12884); settings: cited from earlier work
T1 sequence (Q12884 1-760): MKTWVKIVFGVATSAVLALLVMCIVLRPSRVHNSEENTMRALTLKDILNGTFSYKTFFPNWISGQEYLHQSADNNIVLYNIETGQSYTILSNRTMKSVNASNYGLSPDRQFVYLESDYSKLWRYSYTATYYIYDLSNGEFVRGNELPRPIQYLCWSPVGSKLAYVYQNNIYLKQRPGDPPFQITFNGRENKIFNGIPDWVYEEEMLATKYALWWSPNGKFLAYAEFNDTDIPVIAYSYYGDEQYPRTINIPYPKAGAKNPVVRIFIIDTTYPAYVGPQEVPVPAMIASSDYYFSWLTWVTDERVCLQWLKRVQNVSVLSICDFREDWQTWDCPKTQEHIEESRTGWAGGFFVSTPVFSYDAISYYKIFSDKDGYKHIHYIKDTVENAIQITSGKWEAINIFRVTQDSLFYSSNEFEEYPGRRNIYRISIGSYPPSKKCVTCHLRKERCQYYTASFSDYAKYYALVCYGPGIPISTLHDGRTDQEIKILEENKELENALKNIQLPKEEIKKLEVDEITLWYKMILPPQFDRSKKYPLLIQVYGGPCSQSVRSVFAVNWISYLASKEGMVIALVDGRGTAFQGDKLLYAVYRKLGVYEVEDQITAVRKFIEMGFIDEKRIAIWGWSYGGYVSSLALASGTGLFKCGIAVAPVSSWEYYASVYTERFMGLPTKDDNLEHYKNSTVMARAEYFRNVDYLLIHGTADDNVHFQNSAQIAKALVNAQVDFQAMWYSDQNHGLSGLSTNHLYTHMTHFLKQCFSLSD

CD26 = biological target: T2, CD26 (Homo sapiens, UniProt P27487); assay: Binding specificity by ELISA on cell lysates, CD26; settings: HEK293 huCD26+ lysates
T2 construct: expressed in transfected cells; host or cells: HEK293 c-18 (ATCC CRL-10852), pEAK 8 vector; cell lysate coated on the plate
T2 sequence (P27487 whole entry): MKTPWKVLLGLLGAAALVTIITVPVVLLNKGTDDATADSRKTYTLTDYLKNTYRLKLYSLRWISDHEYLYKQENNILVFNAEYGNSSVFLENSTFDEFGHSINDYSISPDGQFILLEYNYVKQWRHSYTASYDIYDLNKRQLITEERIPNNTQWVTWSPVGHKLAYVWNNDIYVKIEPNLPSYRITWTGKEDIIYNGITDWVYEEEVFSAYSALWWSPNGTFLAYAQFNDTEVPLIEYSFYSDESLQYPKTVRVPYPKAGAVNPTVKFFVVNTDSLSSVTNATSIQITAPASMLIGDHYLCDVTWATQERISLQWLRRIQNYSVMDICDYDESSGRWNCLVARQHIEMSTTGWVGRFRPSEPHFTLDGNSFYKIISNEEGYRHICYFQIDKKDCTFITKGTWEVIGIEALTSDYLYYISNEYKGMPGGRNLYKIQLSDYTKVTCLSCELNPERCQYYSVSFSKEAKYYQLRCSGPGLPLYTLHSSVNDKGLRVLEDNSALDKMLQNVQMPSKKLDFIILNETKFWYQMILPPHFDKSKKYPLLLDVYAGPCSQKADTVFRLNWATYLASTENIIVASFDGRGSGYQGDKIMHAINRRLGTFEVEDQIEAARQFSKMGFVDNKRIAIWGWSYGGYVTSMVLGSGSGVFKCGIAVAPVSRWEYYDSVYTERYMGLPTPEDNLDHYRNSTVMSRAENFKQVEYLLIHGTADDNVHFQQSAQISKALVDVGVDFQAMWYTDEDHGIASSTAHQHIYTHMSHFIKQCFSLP
Procedure: FIG. 3: Specificity of Fabs ESC11 and ESC14. A. ELISA of Fabs (100 nM) binding to cell-lysate-coated plates. HT1080 FAP^+ (black bars), HT1080 (white bars), HEK293 huCD26^+ (striped bars), HEK293 muFAP^+ (grey bars), HEK293 mock transfected line (hatched bars). B. FACS analysis of Fab ESC11 (black line), ESC14 (grey line), and a non-binding control Fab (filled) on HT1080 FAP^+ cells (left) and 293 muFAP^+ cells (right)
Screening of Supernatants by ELISA and Flow Cytometry.
Supernatants of the output libraries after each selection round, and supernatants of individual bacterial clones after rounds three, four, and five were screened for FAP-binding phage by ELISA. Ninety-six-well microtiter plates (MAXISORP® Nunc) were coated with cell extracts cell extracts from HEK293 huFAP, HEK293 huCD26, HEK293 muFAP, or mock-transfected HEK293, blocked with 5% milk powder in PBS, incubated with phage-containing supernatants for 1 hr at room temperature and developed using an anti-M13-HRP conjugated antibody. […] Bound Fab antibody was detected with anti-myc tag antibody 9E10, followed by an anti-mouse immunoglobulin-PE conjugate. For competition assays, Fab antibodies were detected using biotinylated anti-myc tag 9E10, followed by strep-PE.

[2] = biological target: T3, dipeptidylpeptidase activity of FAP (Homo sapiens, UniProt Q12884); assay: Fluorogenic dipeptidyl peptidase activity assay (Ala-Pro-AFC); assay type: biochemical; settings: 30 μg/ml IgGs added to extracts of human AF; Ala-Pro-AFC substrate
T3 construct: native FAP expressed on human AF; endogenous in cells
T3 sequence (Q12884 1-760): T1 sequence (Q12884 1-760)
Procedure: Fluorogenic Dipeptidyl Peptidase Activity Assay.
The diluted extracts were incubated with 0.5 mM Ala-Pro-AFC in 96-well plates at 37° C. and release of free AFC was monitored over time on a fluorescence reader (Victor Wallac, Perkin Elmer), using a 395 nm excitation/530 nm emission filter set. Dipeptidyl peptidase activity was determined from the slope of the fluorescence readings, after subtraction of background activity from a FAP negative sample.

FAP-expressing cells = assay: Attachment assay to ECM proteins; assay type: cell-based; settings: antibodies 10 ug/ml, 30 min preincubation
Procedure: Ninety-six-well microtiter plates (MAXISORP®, Nunc) were coated with indicated proteins at a concentration of 50 ug/ml and incubated over night at 4° C. Plates were washed three times with PBS and then blocked with 1% BSA for 60 min at 37° C. Cells were preincubated for 30 min with indicated antibodies at a final concentration of 10 ug/ml and then added to the coated plates. After 60 min, plates were washed with PBS to remove non adherent cells. Attached cells were stained using cristal violet and lysed by addition of Isopropanol with 0.4M HCl at a final volume of 75 ul/well. OD560 was measured on a ELISA reader.

[3] = test system: HEK293 cells stably transfected with mouse FAP; assay: Detection of apoptotic cells by Annexin V staining, FAP-transfected cells; assay type: cell-based
[4] = test system: mock-transfected Hek293 cells; assay: Detection of apoptotic cells by Annexin V staining, mock-transfected cells; assay type: cell-based
Procedure: Detection of Apoptotic Cells by Annexin V Staining.
FAP- and mock-transfected Hek293 cells were incubated in DMEM supplemented with 10% FBS in the presence of indicated amount of antibodies at RT. Control samples were either incubated in the absence of antibodies or at 4° C. in the presence of antibodies. After 60 min, cells were washed and stained with Propidium Iodide (Sigma) and Annexin V (Roche) following the manufacturer's instructions and the percentage of apoptosis was determined using flow cytometry.

FAP [5] = biological target: T1, FAP; assay: Antibody mediated down-regulation of FAP expression; assay type: cell-based; set-up: expressed in transfected cells; host or cells: HT1080 (FAP-transfected); settings: FAP-transfected tumor cell lines (HT1080FAP), over night incubation, F19 staining
Procedure: For detection of loss of FAP expression, sub-confluent HT1080FAP cultures were trypsinized, washed with PBS and resuspended in RPMI, 10% FBS at 5×10^5 cells and 0.5 ml per well seeded in 12 well cell culture plates and the indicated concentration of ESCHIgG was added. After over night incubation, cells were trypsinized washed and stained with 10 ug/ml F19 followed by FITC-conjugated polyclonal goat anti-mouse. Fluorescence intensity of the cells was analyzed by flow cytometry. % FAP expression was calculated (100/(signal 0 ug/ml ESC11IgG−background signal))*(signal with ESC11IgG−backgroundsignal). One representative of three independent experiments is shown.

FAP [6] = biological target: T1, FAP; assay: Competition assay on HT1080hFAP cells by flow cytometry; assay type: binding; set-up: expressed in transfected cells; host or cells: HT1080 (FAP-transfected); settings: IgG at 5 ug/ml before ESC11/ESC14 Fab fragments; HT1080FAP cells, 4° C.
Procedure: For measuring the competitive binding of ESC11 and ESC14, Fab fragments were titered on HT1080hFAP cells and binding was determined by flow cytometry. The concentration resulting in 90% of the maximal binding was used for the competition assay. HT1080FAP were incubated with the indicated antibodies at 5 ug/ml for 20 min at 4° C., then the ESC11-/ESC14 Fab fragments or PBS added at the pre-determined concentrations and incubated for 20 min at 4° C. Cells were washed once with PBS at 4° C. and fixed with 2% PFA on ice. Bound Fab fragment was detected by the myc-tag with biotinylated anti-myc and PE conjugated streptavidin. Cells were then analyzed by flow cytometry as described.

HT1080FAP cells = assay: Internalization of FAP-antibody complexes by fluorescence microscopy; assay type: cell-based; settings: DyLight 488 labelled antibody, 37° C., two hours, acidic wash
Procedure: HT1080FAP cells were incubated with fluorescence labelled anti-FAP antibody Esc11 DYLIGHT® […] (flurorochrome conjugated antibody, ThermoScientific). […] When cells were warmed up to 37° C., rapid internalisation of FAP-Esc11 complexes could be detected with cytoplasmatic spots and vesicular accummulation (FIG. 11B).
Methods: HT1080FAP were grown on fibronectin coated glas slides over night. The cells were then treated with DYLIGHT® (Thermo Scientific) labeled ESC11IgG at either 4° C. or 37° C. for indicated time points. The cover slides were then mounted with flouromount for fluorescence microscopy. ESC11 DYLIGHT® 488 was detected at extention wavelaength of 488 nm and an emission of 518 nm. The results are depicted in FIG. 11.

## Sibrotuzumab: humanized version of F19
FAP [1]; patients, phase I and phase II trials
  Safety and tolerability: safe and well tolerated
FAP [1]; trace-labelling with ^131I, imaging analysis
  Accumulation at the tumor area: specific accumulation
FAP [1]; unconjugated antibody, patients
  Anti-tumor or therapeutic activity: no anti-tumor or any therapeutic activity

B1: ESC14: anti-FAP antibody clone ESC14, format (Fab or IgG) given by the context of the place (antibody, V domains shown)
VH: EVQLVQSGAEVKKPGASVKVSCKASGYTFTSYGISWVRQAPGQGLEWMGWISAYNGNTNYAQKLQGRVTMTTDTSTSTAYMELRSLRSDDTAVYYCARDWSRSGYYLPDYWGQGTLVTVSS
VL: DVVMTQSPLSLPVTLGQPASISCRSSQSLLHSNGYNYLDWYLQRPGQSPHLLIFLGSNRASGVPDRFSGSGSGTDFTLKISRVEAEDVGIYYCMQALQTPPTFGQGTKVEIK
CD26
  Cross-reaction with CD26: no binding
[2]
  Effect on DPP (protease) activity of FAP: no direct influence
FAP-expressing cells
  Attachment of FAP-expressing cells to ECM proteins (matrigel, type I collagen): significant inhibition
[3]; 4° C.
  Induction of apoptosis in the cold: could not be induced
[3]; HEK293 stably transfected with mouse FAP, RT, 60 min, Annexin V
  Induction of apoptosis: underwent apoptosis; also recorded: Induction of apoptosis
[4]
  Induction of apoptosis in mock-transfected cells: not altered at all
FAP [5]
  Down-regulation of FAP expression: rapid FAP down-regulation

B2: ESC14 Fab fragment: fully human anti-FAP Fab from phage library; VH SEQ ID NO: 7, VL SEQ ID NO: 8 (antibody, listed as Homo sapiens, V domains shown)
VH: B1 VH
VL: B1 VL
FAP [5]
  Down-regulation of FAP expression: could not been observed

B3: ESC14 IgG1: ESC14 variable domains cloned into a full human IgG1 format (antibody, V domains shown)
VH: B1 VH
VL: B1 VL
FAP [6]
  Competition for FAP binding: cross-inhibition
FAP [5]
  Down-regulation of FAP expression: down-regulation of FAP expression; also recorded: dose-dependent reduction of FAP

B4: ESC11 IgG1: ESC11 variable domains in full human IgG1 format; heavy chain H to Q at position 1 (SEQ ID NO: 2) (antibody, V domains shown)
VH: QVQLQESGPGLVKPSETLSLTCTVSGGSISSNNYYWGWIRQTPGKGLEWIGSIYYSGSTNYNPSLKSRVTISVDTSKNQFSLKLSSVTAADTAVYYCARGARWQARPATRIDGVAFDIWGQGTMVTVSS
VL: ETTLTQSPGTLSLSPGERATLSCRASQTVTRNYLAWYQQKPGQAPRLLMYGASNRAAGVPDRFSGSGSGTDFTLTISRLEPEDFAVYYCQQFGSPYTFGQGTKVEIK
HT1080FAP cells
  Internalisation of FAP-antibody complexes: most of the antibody had internalized
FAP [6]
  Competition for FAP binding: cross-inhibition
FAP [5]
  Down-regulation of FAP expression: down-regulation of FAP expression; also recorded: dose-dependent reduction of FAP

B5: ESC11 Fab fragment: fully human anti-FAP Fab from phage library; VH SEQ ID NO: 1, VL SEQ ID NO: 3 (antibody, listed as Homo sapiens, V domains shown)
VH: B4 VH with Q1H
VL: B4 VL
FAP [5]
  Down-regulation of FAP expression: could not been observed
